Values belong to the molecule of their own block, whether it stands above or below them.
Columns and labels:
[1] = target: von Willebrand factor (VWF), purified plasma-derived, multimeric, native (UniProt P04275); experiment: SPR (BIAcore) under laminar flow
[2] = target: von Willebrand factor (VWF), purified plasma-derived, multimeric, native (UniProt P04275); experiment: microtiter plate binding (ELISA format, anti-V5 detection), VWF immobilised, static
[3] = target: von Willebrand factor (VWF), purified plasma-derived, multimeric, native (UniProt P04275); experiment: SPR (BIAcore), VWF injected under flow over immobilised delCUB, equilibrium fit, no EDTA
[4] = target: von Willebrand factor pre-denatured with 1.5 M guanidine-HCl at 37 C for two hours (UniProt P04275); experiment: SPR (BIAcore), guanidine-HCl denatured VWF injected over immobilised delCUB, equilibrium fit
[5] = target: von Willebrand factor (VWF), purified plasma-derived, multimeric, native (UniProt P04275); experiment: SPR (BIAcore), VWF injected under flow over immobilised delCUB, equilibrium fit, in the presence of 10 mM EDTA
[6] = target: von Willebrand factor pre-denatured with 1.5 M guanidine-HCl at 37 C for two hours (UniProt P04275); experiment: SPR (BIAcore), guanidine-HCl denatured VWF injected over immobilised MDTCS, equilibrium fit
[7] = target: B-domainless derivative of human factor VIII, FVIII-SQ, P00451
[8] = target: T1, human factor VIII derivative lacking the entire B domain and acidic region a3 (741-1689), FVIII-2RKR, P00451
T1 chain 1: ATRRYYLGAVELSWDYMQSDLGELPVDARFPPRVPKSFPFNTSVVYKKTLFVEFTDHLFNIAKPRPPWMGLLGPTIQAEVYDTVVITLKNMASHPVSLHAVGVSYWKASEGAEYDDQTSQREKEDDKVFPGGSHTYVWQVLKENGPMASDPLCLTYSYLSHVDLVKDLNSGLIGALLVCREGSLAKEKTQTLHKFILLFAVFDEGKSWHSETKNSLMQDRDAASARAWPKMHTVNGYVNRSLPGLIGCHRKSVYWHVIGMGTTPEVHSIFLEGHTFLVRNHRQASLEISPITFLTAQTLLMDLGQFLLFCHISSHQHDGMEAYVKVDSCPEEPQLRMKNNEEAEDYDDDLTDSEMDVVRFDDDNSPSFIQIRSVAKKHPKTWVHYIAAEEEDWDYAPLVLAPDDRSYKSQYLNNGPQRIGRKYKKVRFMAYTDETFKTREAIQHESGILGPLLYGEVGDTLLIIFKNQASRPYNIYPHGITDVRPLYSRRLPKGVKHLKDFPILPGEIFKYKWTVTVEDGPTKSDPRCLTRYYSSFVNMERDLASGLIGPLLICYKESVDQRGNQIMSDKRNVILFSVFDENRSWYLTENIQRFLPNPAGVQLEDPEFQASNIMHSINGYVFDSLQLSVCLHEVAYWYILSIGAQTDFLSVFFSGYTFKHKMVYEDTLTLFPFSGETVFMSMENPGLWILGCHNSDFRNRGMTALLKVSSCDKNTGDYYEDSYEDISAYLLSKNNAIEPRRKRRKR
T1 chain 2: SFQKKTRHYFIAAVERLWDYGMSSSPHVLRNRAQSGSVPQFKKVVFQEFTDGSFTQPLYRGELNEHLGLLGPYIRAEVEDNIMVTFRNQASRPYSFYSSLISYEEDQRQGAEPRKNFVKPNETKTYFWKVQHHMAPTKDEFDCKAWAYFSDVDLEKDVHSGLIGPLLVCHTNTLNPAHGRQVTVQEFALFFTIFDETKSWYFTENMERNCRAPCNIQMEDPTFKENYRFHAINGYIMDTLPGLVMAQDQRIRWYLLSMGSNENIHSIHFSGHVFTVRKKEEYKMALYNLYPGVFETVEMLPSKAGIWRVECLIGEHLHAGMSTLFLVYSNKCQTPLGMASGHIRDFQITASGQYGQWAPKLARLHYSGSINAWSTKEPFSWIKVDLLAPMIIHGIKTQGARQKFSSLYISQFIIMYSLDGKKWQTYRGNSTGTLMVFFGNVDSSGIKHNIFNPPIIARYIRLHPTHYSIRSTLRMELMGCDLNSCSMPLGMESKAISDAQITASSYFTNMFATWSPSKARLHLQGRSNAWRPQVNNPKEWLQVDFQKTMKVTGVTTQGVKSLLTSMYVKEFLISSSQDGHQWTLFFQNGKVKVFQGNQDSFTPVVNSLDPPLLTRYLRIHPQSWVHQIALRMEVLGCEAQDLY

[9] = target: recombinant human full-length coagulation factor VIII, P00451
[10] = target: T2, von Willebrand factor pre-denatured with 1.5 M guanidine-HCl at 37 C for two hours (UniProt P04275 764-2813); experiment: SPR (BIAcore), guanidine-HCl denatured VWF injected over immobilised FL-A13, equilibrium fit
T2 construct: mature; Same polypeptide as m1; also called VWF**; denatured VWF

[11] = target: T3, von Willebrand factor (VWF), purified plasma-derived, multimeric, native (UniProt P04275 764-2813); experiment: SPR (BIAcore), VWF injected under flow over FL-A13 immobilised on CM5, equilibrium fit, no EDTA
T3 construct: mature; human is implied; also called pvWF; plasma VWF
Procedure: Briefly, the surface of a carboxymethylated dextran (CM5) chip was activated by injection of 35 μl mixture (1:1, vol:vol) of 0.4 M 1-ethyl-3-(3-dimethylaminopropyl) carbodiimide and 0.1 M N-hydroxysuccinimide according to manufacturer's instruction (BIAcore, Uppsala, Sweden). Approximately 2,000 to 8,000 response units (RU) (2˜10 ng/mm²) of purified recombinant proteins were covalently attached onto the activated CM5 chip surface. The control surface was activated similarly, but blocked by same amount of BSA (Sigma, St. Louis, Mo.). The reactive groups on the dextran surface were blocked by injection of 35 μl of 1 M ethanolamine (pH 8.5) at flow rate of 5 μl per min for 7 min. Then, purified plasma VWF at various concentrations (0-250 μg/ml or 0-1,000 nM as in FIG. 3; 0-125 μg/ml or 0-500 nM as in FIG. 4) in 10 mM HEPES, 150 mM NaCl, pH 7.5 containing 0.005% Tween 20 and 2 mg/ml BSA (HBS-T) were injected and passed over the surface at injection rate 10 to 100 μl/min or 20 μl/min for 3-5 min. […] The dissociation constants, KD (S) at the equilibrium were determined by fitting the data from the binding isotherm using a non-linear regression curve on the PRISM4 software (GraphPad Software, Inc., San Diego, Calif.). […]

[12] = target: T3, von Willebrand factor (VWF), purified …; experiment: SPR (BIAcore), VWF injected under flow over immobilised FL-A13, equilibrium fit, in the presence of 10 mM EDTA
Procedure: Approximately 2,000 to 8,000 response units (RU) (2˜10 ng/mm²) of purified recombinant proteins were covalently attached onto the activated CM5 chip surface. The control surface was activated similarly, but blocked by same amount of BSA (Sigma, St. Louis, Mo.). The reactive groups on the dextran surface were blocked by injection of 35 μl of 1 M ethanolamine (pH 8.5) at flow rate of 5 μl per min for 7 min. Then, purified plasma VWF at various concentrations (0-250 μg/ml or 0-1,000 nM as in FIG. 3; 0-125 μg/ml or 0-500 nM as in FIG. 4) in 10 mM HEPES, 150 mM NaCl, pH 7.5 containing 0.005% Tween 20 and 2 mg/ml BSA (HBS-T) were injected and passed over the surface at injection rate 10 to 100 μl/min or 20 μl/min for 3-5 min. The HBS-T replaced the protein solution and continued to flow for approximately 4 min; further washing with HBS-T for 20-30 min regenerated the surfaces prior to the next injection. The dissociation constants, KD (S) at the equilibrium were determined by fitting the data from the binding isotherm using a non-linear regression curve on the PRISM4 software (GraphPad Software, Inc., San Diego, Calif.).
Fitting the data directly using BIAcore evaluation software, although it is relatively easy, may overestimate the binding affinity between VWF and ADAMTS13 due to the heterogeneity of VWF molecules. […]

- fold reduction in affinity against full-length ADAMTS13 [1]: 5 fold
- Kd [2]: 70 nM
- Kd [3]: 274 nM
- Kd [4]: 242 nM
- Kd [5]: 468 nM
Molecule: ADAMTS13 variant truncated after the 8th TSP-1 repeat (lacking the CUB domains), C-terminal V5-His (from UniProt Q76LX8 75-1191) (enzyme)

- Kd [2]: 56 nM
- Kd [6]: 337 nM
Molecule: ADAMTS13 variant truncated after the spacer domain, C-terminal V5-His (from UniProt Q76LX8 75-685) (enzyme)

- Kd [10]: 83 nM
- Kd [11]: 50 nM
- Kd [12]: 77 nM
B1: full-length ADAMTS13, recombinant, C-terminal V5-His (enzyme, UniProt Q76LX8 75-1427, looked up, not shown: small tags and cut ends)
chain: AAGGILHLELLVAVGPDVFQAHQEDTERYVLTNLNIGAELLRDPSLGAQFRVHLVKMVILTEPEGAPNITANLTSSLLSVCGWSQTINPEDDTDPGHADLVLYITRFDLELPDGNRQVRGVTQLGGACSPTWSCLITEDTGFDLGVTIAHEIGHSFGLEHDGAPGSGCGPSGHVMASDGAAPRAGLAWSPCSRRQLLSLLSAGRARCVWDPPRPQPGSAGHPPDAQPGLYYSANEQCRVAFGPKAVACTFAREHLDMCQALSCHTDPLDQSSCSRLLVPLLDGTECGVEKWCSKGRCRSLVELTPIAAVHGRWSSWGPRSPCSRSCGGGVVTRRRQCNNPRPAFGGRACVGADLQAEMCNTQACEKTQLEFMSQQCARTDGQPLRSSPGGASFYHWGAAVPHSQGDALCRHMCRAIGESFIMKRGDSFLDGTRCMPSGPREDGTLSLCVSGSCRTFGCDGRMDSQQVWDRCQVCGGDNSTCSPRKGSFTAGRAREYVTFLTVTPNLTSVYIANHRPLFTHLAVRIGGRYVVAGKMSISPNTTYPSLLEDGRVEYRVALTEDRLPRLEEIRIWGPLQEDADIQVYRRYGEEYGNLTRPDITFTYFQPKPRQAWVWAAVRGPCSVSCGAGLRWVNYSCLDQARKELVETVQCQGSQQPPAWPEACVLEPCPPYWAVGDFGPCSASCGGGLRERPVRCVEAQGSLLKTLPPARCRAGAQQPAVALETCNPQPCPARWEVSEPSSCTSAGGAGLALENETCVPGADGLEAPVTEGPGSVDEKLPAPEPCVGMSCPPGWGHLDATSAGEKAPSPWGSIRTGAQAAHVWTPAAGSCSVSCGRGLMELRFLCMDSALRVPVQEELCGLASKPGSRREVCQAVPCPARWQYKLAACSVSCGRGVVRRILYCARAHGEDDGEEILLDTQCQGLPRPEPQEACSLEPCPPRWKVMSLGPCSASCGLGTARRSVACVQLDQGQDVEVDEAACAALVRPEASVPCLIADCTYRWHVGTWMECSVSCGDGIQRRRDTCLGPQAQAPVPADFCQHLPKPVTVRGCWAGPCVGQGTPSLVPHEEAAAPGRTTATPAGASLEWSQARGLLFSPAPQPRRLLPGPQENSVQSSACGRQHLEPTGTIDMRGPGQADCAVAIGRPLGEVVTLRVLESSLNCSAGDMLLLWGRLTWRKMCRKLLDMTFSSKTNTLVVRQRCGRPGGGVLLRYGSQLAPETFYRECDMQLFGPWGEIVSPSLSPATSNAGGCRLFINVAPHARIAIHALATNMGAGTEGANASYILIRDTHSLRTTAFHGQQVLYWESESSQAEMEFSEGFLKAQASLRGQYWTLQSWVPEMQDPQSWKGKEGT
notes: mature; also called FL-A13; FL-AD13
- increase of the initial rate of cleavage of FRETS-vWF73 and GST-vWF73 by ADAMTS13 [7]: by a factor of 2 or 3
- increase of the initial rate of cleavage of FRETS-vWF73 and GST-vWF73 by ADAMTS13 [8]: by a factor of 2 or 3
- increase of the initial rate of cleavage of FRETS-vWF73 and GST-vWF73 by ADAMTS13 [9]: by a factor of 2 or 3
